Reference: patent US20080306243A1 (NEC, published 2008)

Target: T1, HLA-A2402 molecule, which is a product of the HLA-A*2402 gene (human)
T1 construct: MHC class I molecule on C1R-A24 cells, emptied by acid and reassociated with added β2m and the test peptide; also called HLA-A24 molecule; human HLA-A2402 molecule
Experiment: flow cytometry; reassociation of peptide, added β2m and HLA-A2402 on acid-stripped C1R-A24 cells, stained with mAb 17A12
Protocol: After neutralization, purified β2m was added to C1R-A24 cells, the obtained product was added to serial dilutions of a peptide, and incubated on ice for 4 hours.
Subsequently, the MHC-pep count per C1R-A24 cell (proportional to the strength of fluorescence of the above-mentioned fluorescent antibody) was quantitatively measured using an FACScan fluorescence-activated cell sorter (Becton Dickinson Biosciences). A binding dissociation constant Kd value between the HLA-A24 molecule and the peptide was calculated from the average strength of fluorescence per cell by a published method (Udaka et al., Immunogenetics, 51, 816-828, 2000).

-log Kd	Binder
6.65 -log Kd	VHPQKVTKF (Synthetic 9-mer peptide of PSA (GenBank M26663)) [SEQ ID NO 7]
6.34 -log Kd	VLVHPQWVL (Synthetic 9-mer peptide of PSA (GenBank M26663)) [SEQ ID NO 9]
5.38 -log Kd	GVLQGITSW (Synthetic 9-mer peptide of PSA (GenBank M26663)) [SEQ ID NO 8]

The remaining lines, values behind:

Binder	-log Kd
ILSRIVGGW (Synthetic 9-mer peptide of PSA (GenBank M26663)) [SEQ ID NO 6]	7.21 -log Kd
QVFQVSHSF (Synthetic 9-mer peptide of PSA (GenBank M26663)) [SEQ ID NO 5]	7.32 -log Kd
ILLGRHSLF (Synthetic 9-mer peptide of PSA (GenBank M26663)) [SEQ ID NO 3]	7.47 -log Kd
